Columns and labels:
human ROR1-Fz = biological target: T1, human ROR1-Fz (Homo sapiens, UniProt Q01973); assay: Biacore off-rate and kinetic analysis, ROR1-Fz; type: binding; conditions: for Biacore human ROR1-Fz ka / Biacore human ROR1-Fz kd: Table 11, SP34 light chain
T1 construct: Frizzled (Fz, residues 165-305); His6 (C); purchased Acro Biosystems; host or cells: HEK293
Protocol: Anti-Fc polyclonal antibodies were immobilized onto a CMS chip (GE Life Sciences) using amine coupling chemistry (from Amine Coupling Kit, GE Life Sciences). The immobilization steps were carried out at a flow rate of 25 μL/min in 1×HBS-EP+buffer (GE Life Sciences; 10× Stock diluted before use). The sensor surfaces were activated for 7 min with a mixture of NHS (0.05 M) and EDC (0.2 M). The Anti-Fc antibodies were injected over all 4 flow cells at a concentration of 25 ug/ml in 10 mM sodium acetate, pH 4.5, for 7 min. Ethanolamine (1 M, pH 8.5) was injected for 7 min to block any remaining activated groups. An average of 12,000 response units (RU) of capture antibody was immobilized on each flow cell.
Off-rate and kinetic binding experiments were performed at 25° C. using 1×HBS-EP+buffer. Test and control antibodies were injected over the anti-Fc surface at concentrations of 5-10 μg/mL for 12 seconds at a flow rate of 10 μL/min on flow cells 2, 3 and 4, followed by a buffer wash for 30 seconds at the same flow rate. Kinetic characterization of antibody samples was carried out with a range of antigen concentrations from 1-100 nM and 1 injection of 0 nM antigen (for example, 100, 50, 25, 6.25, 1.56 and 0 nM). After capturing ligand (antibody) on the anti-Fc surface, the analyte (hROR1, Fz or Kr domains, Acro Biosystems, Delaware) was bound for 180 seconds, followed by a 600 second dissociation phase at a flow rate of 50 μL/min. Between each ligand capture and analyte binding cycle, regeneration was carried out using 2 injections of 10 mM Glycine pH 2.0 for 30 seconds at 30 μL/min, followed by a 30 second buffer wash step.
The data was fit with the Biacore T200 Evaluation software, using a 1-1 Langmuir binding model. KD (affinity, nM) was determined as a ratio of the kinetic rate constants calculated from the fits of the association and dissociation phases.
For anti-CD3-LC-containing IgGs that had detectable ROR1-binding in ELISA (1944-A07 and 1987-C05 variants), those antibodies were further tested for binding by surface plasmon resonance (SPR). Binding kinetics were assessed to the ROR1-frizzled domain (hROR1-Fz) or the ROR1-extracellular domain (hROR1) for 1944-A07 and 1987-C05 variants, respectively. Briefly, anti-ROR1 antibodies were captured via anti-human Fc polyclonal antibodies immobilized to a CM5 chip, and ROR1 recombinant proteins were flowed across the surface to assess binding kinetics. hROR1 or hROR1-Fz domain (Acro Biosystems, Delaware) binding was tested at 100, 50, 25, 6.25, 1.5625 nM. The data was fit with the Biacore™ T200 Evaluation software, using a 1-1 Langmuir binding model. KD (affinity, nM) was determined as a ratio of the kinetic rate constants calculated from the fits of the association and dissociation phases.

[1] = Differential scanning fluorimetry (protein thermal shift; TM1/TM2); type: physicochemical; conditions: Table 11; melting temperature of the Fab domain
Protocol: A protein thermal shift assay was carried out by mixing the protein to be assayed with an environmentally sensitive dye (SYPRO Orange, Life Technologies Cat #S-6650) in a phosphate buffered solution (PBS), and monitoring the fluorescence of the mixture in real time as it underwent controlled thermal denaturation. Protein solutions between 0.2-2 mg/mL were mixed at a 1-1 volumetric ratio with a 1-500 PBS-diluted solution of SYPRO Orange (SYPRO Orange stock dye is 5000× in DMSO). 10 μL aliquots of the protein-dye mixture were dispensed in quadruplicate in a 384-well microplate (Bio-Rad Cat #MSP-3852), and the plate was sealed with an optically clear sealing film (Bio-Rad Cat #MSB-1001) and placed in a 384-well plate real-time thermocycler (Bio-Rad CFX384 Real Time System). The protein-dye mixture was heated from […], at increments of 0.1° C. per cycle (˜1.5° C. per minute), allowing 3 seconds of equilibration at each temperature before taking a fluorescence measurement. At the end of the experiment, the transition melting temperatures (TM1 and TM2) were determined using the Bio-Rad CFX manager software. TM1 represents the melting temperature of the Fc domain. TM2 represents the melting temperature of the Fab domain.
For the thermal stability of an antibody, the first melting peak (Tm1) coincides with the unfolding of the CH2 domain (FC stability), while the second melting peak (Tm2) occurs upon unfolding of the Fab domain.

[2] = Table 7, sample ROR1 Fz, 1944-A07 HC with different LCs

T1 sequence (Q01973 165-305): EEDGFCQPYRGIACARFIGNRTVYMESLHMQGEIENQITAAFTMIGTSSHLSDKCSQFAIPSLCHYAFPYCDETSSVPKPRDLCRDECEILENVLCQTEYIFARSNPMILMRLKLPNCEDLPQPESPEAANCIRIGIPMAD

Row | Molecule | TM2 (° C.) [1] [°C] | Biacore human ROR1-Fz ka (human ROR1-Fz) [M⁻¹ s⁻¹] | Biacore human ROR1-Fz kd (human ROR1-Fz) [s⁻¹] | further results
1 | 1944-A07 HC w/hUCHT1 LC3: HC of lead antibody 1944-A07 co-expressed with the LC of anti-CD3 antibody "hUCHT1-LC3" (antibody, V domains shown) VH: EVQLVESGGGLVQPGGSLRLSCAASGFNITGYYIHWVRQAPGKGLEWVGYISPNSGSTYYADSVKGRFTISADTSKNTAYLQMNSLRAEDTAVYYCARDSRRYVRPFDYWGQGTLVTVSS VL: DIQMTQSPSTLSASVGDRVTITCRASQDIRNYLNWYQQKPGKAPKLLIYYTSRLHSGVPSRFSGSGSGTEYTLTISSLQPDDFATYYCQQGNTLPWTFGGGTKVEIK |  |  |  | ka1 (human ROR1-Fz; [2]): 1.85e+06 M⁻¹ s⁻¹; kd1 (human ROR1-Fz; [2]): 0.119 s⁻¹; KD (SPR binding kinetics) (human ROR1-Fz; hROR1-Fz, 1944-A07 variants): binding was not detected
2 | SRP2196-A05 (antibody, V domains shown) VH: EVQLVESGGGLVQPGGSLRLSCAASGFNITNYYIHWVRQAPGKGLEWVGYISPNSGATYQADSVKGRFTISADTSKNTAYLQMNSLRAEDTAVYYCARDSRRYVRSWDYWGQGTLVTVSS VL: QAVVTQESALTTSPGETVTLTCRSSTGAVTTSNYANWVQEKPDHLFTGLIGGTNKRAPGVPARFSGSLIGDKAALTITGAQTEDEAIYFCALWYSNLWVFGGGTKLTVL | 71 | 175000 | 0.000682 | 
3 | SRP2196-A08 (antibody, V domains shown) VH: EVQLVESGGGLVQPGGSLRLSCAASGFNITGYYIHWVRQAPGKGLEWVGYISPNSGSTYKADSVKGRFTISADTSRNTAYLQMNSLRAEDTAVYYCARDSRRYVRSWDYWGQGTLVTVSS VL: QAVVTQESALTTSPGETVTLTCRSSTGAVTTSNYANWVQEKPDHLFTGLIGGTNKRAPGVPARFSGSLIGDKAALTITGAQTEDEAIYFCALWYSNLWVFGGGTKLTVL | 69 | 183000 | 0.00078 | 
4 | SRP2196-A06 (antibody, V domains shown) VH: EVQLVESGGGLVQPGGSLRLSCAASGFNITGYYIHWVRQAPGKGLEWVGQISPNSGSTHQADSVKGRFTISADTSKNTAYLQMNSLRAGDTAVYYCARDSRRYVRGWDYWGQGTLVTVSS VL: QAVVTQESALTTSPGETVTLTCRSSTGAVTTSNYANWVQEKPDHLFTGLIGGTNKRAPGVPARFSGSLIGDKAALTITGAQTEDEAIYFCALWYSNLWVFGGGTKLTVL | 70 | 180000 | 0.00069 | 
5 | SRP2196-B05 (antibody, V domains shown) VH: EVQLVESGGGLVQPGGSLRLSCAASGFNITGYYIHWVRQAPGKGLEWVGQISPNSGATYHADSVKGRFTISADTSKNTAYLQMNSLRAEDTAVYYCARDSRRYVRGWDYWGQGTLVTVSS VL: QAVVTQESALTTSPGETVTLTCRSSTGAVTTSNYANWVQEKPDHLFTGLIGGTNKRAPGVPARFSGSLIGDKAALTITGAQTEDEAIYFCALWYSNLWVFGGGTKLTVL | 73 |  |  | 
6 | 1944-A07 HC w/hSP34 LC3: HC of lead antibody 1944-A07 co-expressed with the LC of anti-CD3 antibody "hSP34-LC3" (antibody, V domains shown) VH: EVQLVESGGGLVQPGGSLRLSCAASGFNITGYYIHWVRQAPGKGLEWVGYISPNSGSTYYADSVKGRFTISADTSKNTAYLQMNSLRAEDTAVYYCARDSRRYVRPFDYWGQGTLVTVSS VL: QTVVTQEPSLTVSPGGTVTLTCGSSTGAVTSGYYPNWFQQKPGQAPRGLIGGTKFLAPGTPARFSGSLLGGKAALTLSGVQPEDEAEYYCALWYSNRWVFGGGTQLTVTG |  |  |  | ka1 (human ROR1-Fz; [2]): 360000 M⁻¹ s⁻¹; kd1 (human ROR1-Fz; [2]): 0.00228 s⁻¹
7 | SRP2196-A01 (antibody, V domains shown) VH: EVQLVESGGGLVQPGGSLRLSCAASGFNITGYYIHWVRQAPGKGLEWVGQISPNSGYTYYADSVKGRFTISADTSKNTAYLQMNSLRAEDTAVYYCARDSRRYVRGWDYWGQGTLVTVSS VL: QAVVTQESALTTSPGETVTLTCRSSTGAVTTSNYANWVQEKPDHLFTGLIGGTNKRAPGVPARFSGSLIGDKAALTITGAQTEDEAIYFCALWYSNLWVFGGGTKLTVL | 74 |  |  | 
8 | 1944-A07 HC w/hOKT3 LC1: HC of lead antibody 1944-A07 co-expressed with the LC of anti-CD3 antibody "hOKT3-LC1" (antibody, V domains shown) VH: EVQLVESGGGLVQPGGSLRLSCAASGFNITGYYIHWVRQAPGKGLEWVGYISPNSGSTYYADSVKGRFTISADTSKNTAYLQMNSLRAEDTAVYYCARDSRRYVRPFDYWGQGTLVTVSS VL: DIQMTQSPSSLSASVGDRVTITCSASSSVSYMNWYQQKPGKAPKRLIYDTSKLASGVPSRFSGSGSGTEYTLTISSLQPEDFATYYCQQWSSNPFTFGQGTKLEIK |  |  |  | KD (human ROR1-Fz; [2]): Not detected
9 | SRP1944-A07 w SP34 LC3: "initial antibody leads constructed with an SP34 light chain" (antibody, V domains shown) VH: EVQLVESGGGLVQPGGSLRLSCAASGFNITGYYIHWVRQAPGKGLEWVGYISPNSGSTYYADSVKGRFTISADTSKNTAYLQMNSLRAEDTAVYYCARDSRRYVRPFDYWGQGTLVTVSS VL: QTVVTQEPSLTVSPGGTVTLTCGSSTGAVTSGYYPNWFQQKPGQAPRGLIGGTKFLAPGTPARFSGSLLGGKAALTLSGVQPEDEAEYYCALWYSNRWVFGGGTQLTVTG |  | 597000 | 0.0085 | 
10 | SRP2196-A04 (antibody, V domains shown) VH: EVQLVESGGGLVQPGGSLRLSCAASGFNISPYYIHWVRQAPGKGLEWVGQIYPISGHTYQADSVKGRFTISADTSKNTAYLQMNSLRAEDTAVYYCARESRRYVGPFGYWGQGTLVTVSS VL: QAVVTQESALTTSPGETVTLTCRSSTGAVTTSNYANWVQEKPDHLFTGLIGGTNKRAPGVPARFSGSLIGDKAALTITGAQTEDEAIYFCALWYSNLWVFGGGTKLTVL |  | 139000 | 0.000343 | 
11 | SRP2196-A02 (antibody, V domains shown) VH: EVQLVESGGGLVQPGGSLRLSCAASGFNITGYYIHWVRQAPGKGLEWVGQISPNSGATHDADSVKGRFTISADTSKNTAYLQMNSLRAEDTAVYYCARDSRRYVRGWDYWGQGTLVTVSS VL: QAVVTQESALTTSPGETVTLTCRSSTGAVTTSNYANWVQEKPDHLFTGLIGGTNKRAPGVPARFSGSLIGDKAALTITGAQTEDEAIYFCALWYSNLWVFGGGTKLTVL | 71 |  |  | 
